From publication PMC3234751

Biological target: GFP-tagged IQGAP1 lacking IQ domains (IQGAPΔIQ) (UniProt P46940)
Assay: co-IP

Sequence of UniProt P46940 (P46940 whole entry, stated change not applied, the tested form may be a part): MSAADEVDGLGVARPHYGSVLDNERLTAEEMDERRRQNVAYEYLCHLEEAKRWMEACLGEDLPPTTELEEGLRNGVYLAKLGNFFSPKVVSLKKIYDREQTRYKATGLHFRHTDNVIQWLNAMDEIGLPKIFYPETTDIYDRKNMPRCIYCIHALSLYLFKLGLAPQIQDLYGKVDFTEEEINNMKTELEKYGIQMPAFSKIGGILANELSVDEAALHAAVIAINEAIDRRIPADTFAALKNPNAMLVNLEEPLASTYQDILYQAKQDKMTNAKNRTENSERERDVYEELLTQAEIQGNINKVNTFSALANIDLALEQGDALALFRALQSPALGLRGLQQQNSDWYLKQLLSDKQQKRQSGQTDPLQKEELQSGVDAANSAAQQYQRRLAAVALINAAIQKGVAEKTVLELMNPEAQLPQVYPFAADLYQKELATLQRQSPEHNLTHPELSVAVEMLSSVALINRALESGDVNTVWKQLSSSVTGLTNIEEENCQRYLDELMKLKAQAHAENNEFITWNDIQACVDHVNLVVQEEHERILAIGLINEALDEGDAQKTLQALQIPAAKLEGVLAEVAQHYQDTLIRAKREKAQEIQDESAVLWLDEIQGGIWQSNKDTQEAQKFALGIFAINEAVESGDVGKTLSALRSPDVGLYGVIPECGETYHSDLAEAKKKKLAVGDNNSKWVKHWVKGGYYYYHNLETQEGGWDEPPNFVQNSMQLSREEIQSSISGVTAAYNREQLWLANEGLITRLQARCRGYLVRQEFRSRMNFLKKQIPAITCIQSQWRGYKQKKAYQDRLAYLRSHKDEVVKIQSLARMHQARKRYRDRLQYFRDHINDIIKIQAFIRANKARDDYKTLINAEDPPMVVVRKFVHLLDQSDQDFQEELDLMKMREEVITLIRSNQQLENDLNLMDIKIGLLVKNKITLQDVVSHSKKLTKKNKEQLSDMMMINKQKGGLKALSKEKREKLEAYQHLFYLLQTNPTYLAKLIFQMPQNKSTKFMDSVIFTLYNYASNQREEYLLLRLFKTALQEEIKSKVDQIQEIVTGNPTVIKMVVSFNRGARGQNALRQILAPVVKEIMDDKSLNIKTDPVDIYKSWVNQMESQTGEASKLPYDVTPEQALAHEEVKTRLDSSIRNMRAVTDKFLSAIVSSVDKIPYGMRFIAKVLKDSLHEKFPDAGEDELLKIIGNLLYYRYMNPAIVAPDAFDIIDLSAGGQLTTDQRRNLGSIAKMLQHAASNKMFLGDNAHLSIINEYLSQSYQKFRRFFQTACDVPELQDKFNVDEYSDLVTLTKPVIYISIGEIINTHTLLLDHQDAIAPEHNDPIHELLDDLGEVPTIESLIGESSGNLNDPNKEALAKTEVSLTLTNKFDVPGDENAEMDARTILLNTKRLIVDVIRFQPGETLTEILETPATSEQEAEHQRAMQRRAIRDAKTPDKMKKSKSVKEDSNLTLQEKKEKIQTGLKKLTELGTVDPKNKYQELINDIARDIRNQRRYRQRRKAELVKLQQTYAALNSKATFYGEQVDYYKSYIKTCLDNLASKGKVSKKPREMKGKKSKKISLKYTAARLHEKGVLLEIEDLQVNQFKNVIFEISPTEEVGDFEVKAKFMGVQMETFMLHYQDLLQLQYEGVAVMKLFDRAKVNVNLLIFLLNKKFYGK

AKAP220, endogenous in COS cells (natural protein)
fold enhancement in binding (densitometry): 3.6 fold
